Experimental findings from paper PMC7102968 are described below.

In this data set the target is TetR-Y42A Y42A;C68S;C88N;C121T;C144S;internal_change (UniProt P04483). Briefly: ITC. The conditions noted are these: ITC: 20 mM potassium phosphate pH 7.4, 50 mM NaCl, 25 C; EMSA: 50 mM Tris-HCl pH 8.0, 10 mM MgCl2, 25 mM NaCl, 25 ug/ml yeast tRNA, room temperature; SEC ….

The sequence “GGCCGGAGAAUGUUAUGGCGCGAAAGCGCAGAGAAAACCGGUC [TetR-binding aptamer K1]” came in with a Kd of 13.9 µM. In other words, the double-digit micromolar range.

A word on the Kd: it is the equilibrium constant for the complex coming apart. Read a high Kd as weaker binding.
